# Data taken from patent US20040253673A1.
# Columns and labels:
# [1] = target: Crotalus durissus terrificus (C.d.t.) venom; test: ELISA, C.d.t. venom coat, 1:125
# [2] = target: Crotalus durissus terrificus (C.d.t.) venom; test: ELISA, C.d.t. venom coat, 1:125; remark: listed apart in the source
# [3] = target: Crotalus durissus terrificus (C.d.t.) venom; test: ELISA, C.d.t. venom coat, 1:62,500
# [4] = target: Crotalus durissus terrificus (C.d.t.) venom; test: ELISA, C.d.t. venom coat, 1:25
# [5] = target: Crotalus durissus terrificus (C.d.t.) venom; test: ELISA, C.d.t. venom coat, 1:25; remark: listed apart in the source
# [6] = target: Crotalus durissus terrificus (C.d.t.) venom; test: ELISA, C.d.t. venom coat, 1:625
# [7] = target: Crotalus durissus terrificus (C.d.t.) venom; test: ELISA, C.d.t. venom coat, 1:312,500
# [8] = target: Crotalus durissus terrificus (C.d.t.) venom; test: ELISA, C.d.t. venom coat, 1:3125
# [9] = target: Crotalus durissus terrificus (C.d.t.) venom; test: ELISA, C.d.t. venom coat, 1:625; remark: listed apart in the source
# [10] = target: Crotalus durissus terrificus (C.d.t.) venom; test: ELISA, C.d.t. venom coat, 1:5
# [11] = target: Crotalus durissus terrificus (C.d.t.) venom; test: ELISA, C.d.t. venom coat, undiluted
# [12] = target: Crotalus durissus terrificus (C.d.t.) venom; test: ELISA, C.d.t. venom coat, 1:3125; remark: listed apart in the source
substance,measurement,setting,value
preimmune IgY (antibody),ELISA absorbance,[1],< 0 OD
same,ELISA absorbance,[2],0.003 OD
same,ELISA absorbance,[3],0.001 OD
same,ELISA absorbance,[4],0.016 OD
same,ELISA absorbance,[5],0 OD
same,ELISA absorbance,[6],< 0 OD
same,ELISA absorbance,[7],0.01 OD
same,ELISA absorbance,[8],< 0 OD
same,ELISA absorbance,[9],0 OD
same,ELISA absorbance,[10],< 0 OD
same,ELISA absorbance,[11],0.003 OD
same,ELISA absorbance,[12],0.002 OD
